Assay results: US20220213176A1 (SHANGHAITECH UNIVERSITY, published 2022)

Legend:
[1] = target: spike of authentic SARS-CoV-2 virus BetaCoV/Australia/VIC01/2020 (SARS-CoV-2); experiment: cell-based or functional assay
HCoV-229E spike = target: T1, HCoV-229E spike (HCoV-229E, UniProt P15423 16-1173); experiment: FACS, transfected HEK293T cells, IgG4 antibody
T1 construct: whole, on cells
T1 sequence: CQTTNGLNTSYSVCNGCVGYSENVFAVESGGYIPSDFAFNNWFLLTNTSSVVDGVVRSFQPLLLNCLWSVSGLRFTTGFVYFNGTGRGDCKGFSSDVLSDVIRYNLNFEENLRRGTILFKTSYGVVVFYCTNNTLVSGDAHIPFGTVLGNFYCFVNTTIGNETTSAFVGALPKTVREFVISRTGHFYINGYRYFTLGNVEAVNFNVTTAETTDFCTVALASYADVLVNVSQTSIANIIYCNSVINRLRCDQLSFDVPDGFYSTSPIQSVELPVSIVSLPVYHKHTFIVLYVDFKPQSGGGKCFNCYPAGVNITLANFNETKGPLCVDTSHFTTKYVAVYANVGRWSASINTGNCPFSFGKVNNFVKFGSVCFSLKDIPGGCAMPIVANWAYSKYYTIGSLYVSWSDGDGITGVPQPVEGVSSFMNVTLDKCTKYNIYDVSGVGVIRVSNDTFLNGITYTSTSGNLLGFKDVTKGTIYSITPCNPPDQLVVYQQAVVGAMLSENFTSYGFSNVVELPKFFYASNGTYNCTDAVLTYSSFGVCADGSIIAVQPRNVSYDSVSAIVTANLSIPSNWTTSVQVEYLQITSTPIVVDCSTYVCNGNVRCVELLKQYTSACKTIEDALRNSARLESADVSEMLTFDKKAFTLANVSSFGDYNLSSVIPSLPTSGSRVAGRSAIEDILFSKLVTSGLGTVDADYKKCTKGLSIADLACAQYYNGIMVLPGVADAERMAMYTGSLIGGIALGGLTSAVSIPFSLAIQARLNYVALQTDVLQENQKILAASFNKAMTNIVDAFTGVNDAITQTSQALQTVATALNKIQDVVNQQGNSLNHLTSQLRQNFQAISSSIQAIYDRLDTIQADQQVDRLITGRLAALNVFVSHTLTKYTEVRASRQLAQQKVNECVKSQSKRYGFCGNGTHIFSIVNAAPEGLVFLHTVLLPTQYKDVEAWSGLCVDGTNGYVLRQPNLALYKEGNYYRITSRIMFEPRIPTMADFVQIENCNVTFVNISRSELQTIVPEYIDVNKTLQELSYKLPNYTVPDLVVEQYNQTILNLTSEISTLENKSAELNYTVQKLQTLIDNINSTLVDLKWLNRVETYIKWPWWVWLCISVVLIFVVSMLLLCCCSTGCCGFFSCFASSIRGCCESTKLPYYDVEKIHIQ

HCoV-OC43 spike = target: T2, HCoV-OC43 spike (HCoV-OC43, UniProt P36334 14-1353); experiment: FACS, transfected HEK293T cells, IgG4 antibody
T2 construct: whole, on cells; also called HCoV-0C43 spike
T2 sequence: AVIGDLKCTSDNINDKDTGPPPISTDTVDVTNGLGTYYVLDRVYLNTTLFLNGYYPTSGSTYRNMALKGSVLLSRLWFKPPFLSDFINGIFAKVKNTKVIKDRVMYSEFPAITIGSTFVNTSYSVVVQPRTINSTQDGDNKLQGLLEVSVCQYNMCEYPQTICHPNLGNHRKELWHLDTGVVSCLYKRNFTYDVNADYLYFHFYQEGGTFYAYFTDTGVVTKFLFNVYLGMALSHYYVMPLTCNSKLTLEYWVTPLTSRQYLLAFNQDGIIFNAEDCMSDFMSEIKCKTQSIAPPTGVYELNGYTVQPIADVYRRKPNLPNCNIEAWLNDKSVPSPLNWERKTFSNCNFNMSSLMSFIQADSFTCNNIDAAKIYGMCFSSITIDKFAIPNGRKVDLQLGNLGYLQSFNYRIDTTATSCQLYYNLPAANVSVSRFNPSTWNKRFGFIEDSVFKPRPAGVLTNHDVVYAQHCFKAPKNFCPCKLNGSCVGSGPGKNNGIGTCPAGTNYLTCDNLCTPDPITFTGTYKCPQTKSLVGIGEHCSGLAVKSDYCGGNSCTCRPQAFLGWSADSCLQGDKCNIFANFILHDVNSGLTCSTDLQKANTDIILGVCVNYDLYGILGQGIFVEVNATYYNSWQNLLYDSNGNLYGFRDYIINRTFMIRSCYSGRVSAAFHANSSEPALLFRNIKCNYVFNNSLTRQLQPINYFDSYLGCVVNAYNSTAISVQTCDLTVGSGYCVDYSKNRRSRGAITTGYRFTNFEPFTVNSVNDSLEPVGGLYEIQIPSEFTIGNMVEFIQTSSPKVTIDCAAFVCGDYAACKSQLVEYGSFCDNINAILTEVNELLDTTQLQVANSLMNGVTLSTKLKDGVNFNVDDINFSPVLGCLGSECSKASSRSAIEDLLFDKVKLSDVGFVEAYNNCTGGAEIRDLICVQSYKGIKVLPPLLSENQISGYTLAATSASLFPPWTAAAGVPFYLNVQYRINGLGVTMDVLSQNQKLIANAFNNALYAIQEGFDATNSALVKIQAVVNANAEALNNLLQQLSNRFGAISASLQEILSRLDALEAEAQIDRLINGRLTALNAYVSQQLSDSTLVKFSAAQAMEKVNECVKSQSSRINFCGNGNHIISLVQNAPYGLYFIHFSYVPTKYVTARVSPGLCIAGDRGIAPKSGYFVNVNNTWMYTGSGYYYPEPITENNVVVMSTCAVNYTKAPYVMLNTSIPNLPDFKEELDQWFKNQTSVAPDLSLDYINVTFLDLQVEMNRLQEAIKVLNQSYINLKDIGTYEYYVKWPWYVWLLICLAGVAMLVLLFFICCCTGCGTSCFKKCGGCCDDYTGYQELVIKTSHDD

B1: S-D4 (antibody, V domains shown)
VH: QVQLQESGGGVVQPGRSLRLSCEVSGFTFSDYGMHWVRQAPGKGLEWVAVIWSEGSTEYYADSVKGRFTISRDNSKDTLYLQMNSLRAEDTAVYYCARPGYPTSTDRSPAAAGARQYYYYGMDVWGQGTTVTVSS
VL: NFMLTQPHSVSESPGKTVTISCTRSGGSGAANYVQWYQQRPGSSPTTLIYEDSRRPPGVPDRFSGSVDTSSNSASLTISGLQTEDEADYYCQSYDSSNHVVFGGGTKLTVLG
notes: also called S-D4 dimer; S-D4 IgG4
With B1 the “NT50, authentic virus B VIC01 neutralization” value [1] was 2.04 nM, the binding result (HCoV-229E spike) was “no binding” and the binding result (HCoV-OC43 spike) was “no binding”.

B2: S-E6 (antibody, V domains shown)
VH: QVTLRESGPGLVKPSETLSLTCAVSGGSLSSVNYYWSWIRQHPGKGLEWIGYIYYSGSTNYNPSLKSRVTMSLDTSKNQFSLKLSSVTAADTAVYYCATPGAIMGALHIWGQGTLVTVSS
VL: QAVLTQPSSASSTPGQRVIISCSGSSSNIGSNTVSWYQQVPGAAPKLLIYFDYRRPSGVPDRFSGTRSGTSASLGISGLQSEDEADYYCAAWDDSLSAWVFGRGTKLTVLG
notes: also called S-E6 dimer; dimer S-E6
In the case of B2, the “NT50, authentic virus B VIC01 neutralization” value [1] is reported as 0.15 nM, the binding result (HCoV-229E spike) is reported as “no binding” and the binding result (HCoV-OC43 spike) is reported as “no binding”.

B3: S-B8 (antibody, V domains shown)
VH: QVQLVQSGGGLIQPGGSLRLSCAASGFTVSLSHMNWVRQAPGKGLEWVSITYGDGNSDYADSVKGRFTISRDNSKNTLYLQMNSLRAEDTAVYYCAREYYYGMDVWGQGTTVTVSS
VL: not shown
notes: also called S-B8 dimer
B3 was tested, and the “NT50, authentic virus B VIC01 neutralization” value [1] was 0.88 nM, the binding result (HCoV-229E spike) was “no binding” and the binding result (HCoV-OC43 spike) was “no binding”.
